Three molecules from paper PMC8894350, “Mechanism of cooperative N-glycan processing by the multi-modular endoglycosidase EndoE” (Nature Communications, 2022) can be followed below.

One data set has as its target T1, EndoE-GH18L (Enterococcus faecalis, UniProt Q6U890).
T1 construct: gene ndoE; GH18 domain plus linker region (3HB-1, 3HB-2), residues 56-486; GST tag cut by TEV (GSG linker); E. coli BL21(DE3)
The experiment in a line: X-ray crystal structure of the complex, […] Å. In kind it is binding. The conditions noted are these: co-crystallised with 2.5 mM Man5GlcNAc; pH 6.5 Bis-Tris propane; GH18 active-site groove.

The subject of data set [1] is CC(=O)N[C@H]1[C@H](Oc2ccc([N+](=O)[O-])cc2)O[C@H](CO)[C@@H](O)[C@@H]1O. Kind of data set: purified protein. The conditions noted are these: PCTP buffer pH 8, 5 nM enzyme, 0.09-12 mM substrate, GH20 active site within full-length EndoE.
The test system is the same in data set [2]. The experiment in a line: purified protein. In kind it is biochemical, Enterococcus faecalis. The conditions noted are these: PCTP buffer pH 8, 5 nM enzyme, 0.09-12 mM substrate, isolated GH20 domain.

T1 sequence (Q6U890 entry or part of it): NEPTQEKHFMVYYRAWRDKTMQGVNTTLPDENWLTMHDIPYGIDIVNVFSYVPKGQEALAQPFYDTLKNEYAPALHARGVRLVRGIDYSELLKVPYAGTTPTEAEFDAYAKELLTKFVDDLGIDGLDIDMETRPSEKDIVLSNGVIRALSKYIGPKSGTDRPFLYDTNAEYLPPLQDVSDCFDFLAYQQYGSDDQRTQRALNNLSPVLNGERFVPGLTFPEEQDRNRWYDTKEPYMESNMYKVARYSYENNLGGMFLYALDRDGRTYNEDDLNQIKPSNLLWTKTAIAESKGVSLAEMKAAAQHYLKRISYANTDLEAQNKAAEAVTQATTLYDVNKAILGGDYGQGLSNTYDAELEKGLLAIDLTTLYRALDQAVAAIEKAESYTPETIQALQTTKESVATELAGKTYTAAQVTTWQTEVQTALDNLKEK

On to `CC(=O)N[C@H]1C(O)O[C@H](CO)[C@@H](O[C@@H]2O[C@H](CO[C@H]3O[C@H](CO[C@H]4O[C@H](CO)[C@@H](O)[C@H](O)[C@@H]4O)[C@@H](O)[C@H](O[C@H]4O[C@H](CO)[C@@H](O)[C@H](O)[C@@H]4O)[C@@H]3O)[C@@H](O)[C@H](O[C@H]3O[C@H](CO)[C@@H](O)[C@H](O)[C@@H]3O)[C@@H]2O)[C@@H]1O` (some centres unmarked) [Man5, Man5GlcNAc], for which, on EndoE-GH18L, the “X-ray crystal structure of the complex, 2.6 Å” value is listed as “crystal structure of EndoE-GH18L in complex with the Man5GlcNAc (Man5) product”.

On to EndoE (Enterococcus faecalis), for which, in data set [1], the Km (in general, the concentration of substrate that gives half-maximal velocity) was determined as 450 µM and the kcat (usually the maximal rate divided by the concentration of active sites) amounted to 41 s⁻¹.

EndoE-GH20 (Enterococcus faecalis): in data set [2], the Michaelis constant (Km) turned out to be 970 µM and the kcat was found to be 86 s⁻¹.
